Data published in the supplement of paper PMC10567573.

B1: TRAF3IP2 (parent)
chain: YGHDYPRAAYQQVIQPALPGQPLP
B2: KRT33B (parent)
chain: YQSYFKTIEELQQKILCSKSENAR

Variants of: B1
Assay: protein stability index of a GFP-peptide fusion (GPS, HEK-293T) (PSI 1-6); higher = more stable
Settings: c terminus: a fixed tail appended
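Further: lentivirally expressed fusions sorted by FACS into six bins by GFP to DsRed ratio, PSI derived from sequencing read proportions per bin multiplied by bin number.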

Protein stability index: each site, then its substitutions
P24: Q 1.76 | S 1.43 | F 1.9 | T 2.59 | K 2.47 | E 1.42 | L 2.84 | I 1.78 | N 2.14 | A 2.67 | W 2.3 | M 2.07
L23: W 1.72 | E 1.8 | R 2.28 | P 1.54 | H 1.59 | I 2.24 | Y 1.7 | S 2.02 | Q 2.24 | T 1.99
Y1: R 3.71 | E 4.63 | M 3.31 | W 2.68 | P 4.1 | A 3.77 | Q 3.73 | V 4.01 | C 2.52 | S 3.75 | F 2.12 | L 3.95 | H 4.03
A17: D 2.36 | Q 1.72 | P 2.2 | S 2.43 | G 1.46 | C 2.32 | H 2.08 | F 2.48 | V 2.41 | I 2.37 | K 1.98 | N 1.29
Q21: S 1.99 | F 1.65 | E 2.2 | K 2.21 | D 2.58 | C 2.74 | T 2.1
P19: E 2.42 | T 2.65 | W 1.73 | K 2.14 | C 2.24 | A 1.99 | I 2.54 | L 2.5 | Q 1.54 | G 1.9 | S 2.45 | Y 1.87 | V 2.35
H3: M 1.77 | T 1.73 | R 2.19 | V 2.4 | G 4.19
Q11: R 1.59 | Y 2.52 | P 1.69 | K 2.24 | G 1.79 | N 1.96 | M 1.65 | D 2.05 | F 3.98 | L 3.77 | S 2.15 | W 1.94 | V 2.31
R7: G 2.58 | V 2.56 | A 2.46 | Q 2.56 | I 2.51 | W 2.41 | H 2.36 | F 2.2 | K 2.18 | M 2.27 | T 2.6 | N 2.82 | C 2.44
D4: I 2.1 | S 2.07 | A 1.55 | G 2.05 | Y 2.9 | L 1.73 | Q 1.85
Y10: G 1.91 | N 1.85 | C 2.39 | Q 2.07 | S 1.75
Q15: A 1.74 | G 2.42 | T 1.62 | S 2.01 | C 2.22 | Y 2.53 | V 1.68 | I 2.14 | K 1.82 | H 2.46
G2: K 3.69 | F 3.36 | M 2.15 | R 3.52 | A 2.41 | T 2.27 | W 2.03 | P 3.42 | E 3.78 | Q 2.62 | C 1.67 | I 1.97
A9: Y 2.02 | V 2.04 | G 2.45 | L 2.16 | P 2.11 | H 1.92 | K 2.4 | R 2.4 | Q 2.2 | F 2.15 | I 1.52 | N 1.73 | T 1.97 | S 1.71 | E 2.38
A8: W 2.64 | E 2.03 | C 1.94 | D 2.43 | F 2.94 | L 2.7 | I 2.57 | R 3.2 | H 3.06
Y5: I 3.43 | L 3.58 | F 2.52 | C 3.5 | Q 3.83 | P 3.99 | S 4.1 | R 3.49 | A 4.22 | D 4.01 | H 3.73 | E 3.88 | G 3.78 | M 3.27 | K 3.86 | T 3.79
I14: C 2.49 | H 1.88 | Q 1.75 | V 1.67 | E 2 | L 1.77 | W 2.33 | N 1.92 | K 2.31 | R 1.74
P22: I 1.82 | R 1.79 | S 1.8 | E 1.71 | H 1.71 | T 2.33 | D 1.34 | F 2.56 | K 2.17 | N 2.11 | L 1.39 | V 1.8 | Q 2.24 | M 1.82
V13: G 2.45 | M 1.95 | H 2.02 | Q 2.25 | Y 2.03 | W 2.4 | S 2.6 | L 2.26 | D 2.64
L18: I 2.16 | T 1.76 | P 1.82 | D 2.17 | E 2.06 | Y 2.26 | G 2.01 | A 1.75 | N 2.25 | Q 2.24 | C 1.86
G20: Y 2.66 | K 2.23 | L 1.38 | F 1.8 | Q 2.04 | N 2.68 | C 2.04 | E 2.52 | M 2.27
P16: T 2.27 | W 3.06 | K 2.48 | I 2.79 | C 2.35 | Q 2.03 | R 1.71
P6: Q 2.27 | N 2.55 | W 1.48 | R 1.99 | K 2.9 | Y 2.96 | E 2.82 | H 1.93 | C 2.26 | V 1.56
Q12: G 2.79 | F 2.56 | L 1.98 | D 1.58 | T 1.7 | I 2.59 | P 3.46 | R 2.17 | W 2.41 | H 2.01 | C 3.07 | M 3.06

Variants of: B2
Assay: as above
Settings: c terminus: a fixed tail appended

Protein stability index of substitutions, site by site:
Y1: A 3.35 | H 3.04 | R 3.15 | F 1.93 | Q 3.32 | V 2.68 | L 1.89 | C 2.69 | G 3.08 | D 4.28 | T 3.28 | P 3.84 | N 3.72 | K 2.88 | I 2.2 | E 3.49 | S 3.62 | W 2.98 | M 3.08
Y4: F 1.85 | V 2.19 | A 2.1 | R 2.25 | W 2.97 | M 2.11 | G 2.08 | E 1.88 | I 1.96 | T 1.74 | N 1.85 | D 2.34 | Q 1.58 | K 1.5 | P 1.73 | C 2.01 | L 1.92 | H 1.81 | S 1.54
Q2: E 3.37 | A 2.54 | R 2.63 | W 2.15 | L 2.46 | H 2.01 | S 2.22 | N 2.16 | G 2.14 | D 2.98 | P 2.77 | V 2.2 | I 2.63 | C 1.52 | K 3.17 | T 1.76 | F 2.5 | Y 2.16 | M 2.65
F5: A 2.37 | E 3.79 | C 2.16 | D 3.8
S3: T 1.9 | Q 2.38 | A 2.87 | G 1.33 | H 1.59 | W 1.79 | M 1.78 | P 2.41 | K 1.98 | Y 2.54 | E 2.42 | R 1.25 | D 2.18 | L 1.96 | C 2.11 | I 1.67 | N 1.79 | V 1.6 | F 1.46
